In patent US20260108617A1, “AUTO-TUNING DRUG REGULATOR CONSTRUCTIONS” (priority 2023, published 2026):

Assays:
[1] = target: recombinant prostasin enzyme (Homo sapiens, UniProt Q16651); experiment: Incubation with recombinant prostasin enzyme, LC/MS analysis of incapacitation byproduct; assay type: biochemical
Description: This is not observed in absence of the enzyme incubation.
Then in FIG. 10, incubation of the drug alone with the prostasin enzyme can be analyzed by LC/MS for the byproduct of incapacitation (the alkylation of the decoy yielding a 1-methylpiperazine-one).
The drug could be tested in similar ways as the other compounds.
The strategy of this example can be generalized for any peptide based PROTAC for TrkA or any other target.

[2] = Cell uptake by imaging of conjugated dancyl fluorophore; assay type: cell-based; details: data not shown
Text: Compound 9 was shown efficacious in these experiments.

Chain of recombinant prostasin enzyme (Q16651 33-343, species assumed): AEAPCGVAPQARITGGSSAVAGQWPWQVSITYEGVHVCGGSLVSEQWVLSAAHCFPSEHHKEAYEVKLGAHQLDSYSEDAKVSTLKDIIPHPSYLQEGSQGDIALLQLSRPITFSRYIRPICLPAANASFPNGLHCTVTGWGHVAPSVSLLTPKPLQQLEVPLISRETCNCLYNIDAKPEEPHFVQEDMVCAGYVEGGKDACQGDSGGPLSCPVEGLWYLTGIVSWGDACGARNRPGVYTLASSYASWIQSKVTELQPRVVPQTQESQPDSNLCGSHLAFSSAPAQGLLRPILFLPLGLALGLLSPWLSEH

## LFLGQARGGRRRRPPP
[1]; absence of the enzyme incubation
  incapacitation byproduct seen by LC/MS: not observed
[1]; incubated with recombinant prostasin enzyme
  incapacitation byproduct seen by LC/MS: independent activator byproduct

## RRARRPRGRQAR
[2]
  cell uptake: demonstrated for cell uptake
